Source: patent US20240209065A1 (SINGLOMICS BEIJING DANXU BIOPHARMACEUTICALS, published 2024)

Assays:
[1] = molecular target: S protein of authentic SARS-CoV-2 G614 virus (SARS-CoV-2, UniProt P0DTC2 14-1273); assay: cell-based or functional assay
[2] = molecular target: S protein of authentic SARS-CoV-2 G614 virus (SARS-CoV-2, UniProt P0DTC2 14-1273); assay: cell-based or functional assay; remark: listed apart in the source

B1: DXP-604 dimeric IgA1 (antibody)
heavy: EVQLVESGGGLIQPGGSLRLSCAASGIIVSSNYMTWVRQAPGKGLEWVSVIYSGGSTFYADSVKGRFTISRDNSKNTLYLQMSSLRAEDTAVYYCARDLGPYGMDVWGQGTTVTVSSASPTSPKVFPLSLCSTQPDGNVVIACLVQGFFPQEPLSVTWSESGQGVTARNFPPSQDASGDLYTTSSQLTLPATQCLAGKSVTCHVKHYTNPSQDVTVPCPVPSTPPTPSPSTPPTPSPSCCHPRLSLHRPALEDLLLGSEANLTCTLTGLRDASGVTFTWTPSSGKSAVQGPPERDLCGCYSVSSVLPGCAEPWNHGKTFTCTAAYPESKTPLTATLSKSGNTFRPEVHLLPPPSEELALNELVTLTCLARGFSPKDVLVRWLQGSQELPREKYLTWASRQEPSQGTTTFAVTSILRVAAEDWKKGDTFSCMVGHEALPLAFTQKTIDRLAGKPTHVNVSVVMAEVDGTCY
light: DIQLTQSPSFLSASVGDRVTITCRASQGISSDLAWYQQKPGKAPNLLIYAASTLQSGVPSRFSGSGSGTEFTLTISSLQPEDFATYYCQQLNSDLYTFGQGTKLEIKRTVAAPSVFIFPPSDEQLKSGTASVVCLLNNFYPREAKVQWKVDNALQSGNSQESVTEQDSKDSTYSLSSTLTLSKADYEKHKVYACEVTHQGLSSPVTKSFNRGEC
chain: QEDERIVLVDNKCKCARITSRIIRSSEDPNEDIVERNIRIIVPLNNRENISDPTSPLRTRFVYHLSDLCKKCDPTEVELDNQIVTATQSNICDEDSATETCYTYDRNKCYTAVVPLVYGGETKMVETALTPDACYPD
[1]
  IC50, microneutralization assay with authentic virus: 0.11 nM

B2: DXP-604 secretory IgA1 (antibody)
heavy: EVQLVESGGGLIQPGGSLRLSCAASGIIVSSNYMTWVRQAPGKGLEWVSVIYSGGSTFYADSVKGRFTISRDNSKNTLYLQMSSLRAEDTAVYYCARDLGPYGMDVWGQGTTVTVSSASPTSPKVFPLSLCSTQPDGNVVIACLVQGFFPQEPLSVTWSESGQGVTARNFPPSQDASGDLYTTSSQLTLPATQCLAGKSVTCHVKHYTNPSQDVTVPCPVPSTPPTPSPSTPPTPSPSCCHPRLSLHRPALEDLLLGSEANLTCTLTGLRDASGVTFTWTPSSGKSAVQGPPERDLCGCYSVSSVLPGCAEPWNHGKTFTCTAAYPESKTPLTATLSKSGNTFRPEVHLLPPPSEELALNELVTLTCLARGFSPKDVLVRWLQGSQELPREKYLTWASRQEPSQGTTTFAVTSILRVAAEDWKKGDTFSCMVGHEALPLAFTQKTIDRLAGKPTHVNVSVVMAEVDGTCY
light: DIQLTQSPSFLSASVGDRVTITCRASQGISSDLAWYQQKPGKAPNLLIYAASTLQSGVPSRFSGSGSGTEFTLTISSLQPEDFATYYCQQLNSDLYTFGQGTKLEIKRTVAAPSVFIFPPSDEQLKSGTASVVCLLNNFYPREAKVQWKVDNALQSGNSQESVTEQDSKDSTYSLSSTLTLSKADYEKHKVYACEVTHQGLSSPVTKSFNRGEC
chain 1: not shown
chain 2: not shown
[1]
  IC50, microneutralization assay with authentic virus: 0.04 nM

B3: XG014 IgG (antibody, V domains shown)
VH: EVQLVQSGAEVKKPGESLKISCKGSGYSFSNYWIGWVRHMPGKGLEWMGIIYPGDSDTRYSPSFQGQVTISVDTSISTAYLQWSSLKASDTAMYYCTRHQYGYNYGYFYYYIDVWGKGTTVTVSS
VL: QSVLTQPPSVSAAPGQKVTISCSGSSSNIGNNPVSWYRQVPGTAPKLLIYDNNKRPSGIPDRFSGSKSGASATLGITGLQTGDEADYYCGTWHTSLSSGVFGGGTKLTVL
[2]
  IC50, microneutralization assay with authentic virus: 0.24 nM
